molecular target: T1, Full length recombinant HBcAg (rHBcAg) encompassing residues 1-183 (hepatitis B virus, UniProt P03146 1-183); test: EIA, support-bound peptide, HBcAg 5 ug/ml
T1 construct: range 1-183; also called hepatitis B virus core antigen
T1 sequence (P03146 whole entry, the tested form may be a part): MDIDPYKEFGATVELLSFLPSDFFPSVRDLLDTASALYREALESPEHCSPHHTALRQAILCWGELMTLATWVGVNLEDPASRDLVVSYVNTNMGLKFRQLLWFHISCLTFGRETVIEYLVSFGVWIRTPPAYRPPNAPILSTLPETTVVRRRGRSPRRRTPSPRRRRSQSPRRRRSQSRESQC

Compared with ISCRASQSVSTSSYSYMHWY [ISCRASQSVSTSSYSYMHWY (SEQ. ID. No. 17)], VKPGASVKLSCKASGYIFTS (also called Peptide # 2; Pept. #2) [VKPGASVKLSCKASGYIFTS (SEQ. ID. No. 5)] is higher in “OD at 490 nm” value: 1.94 OD for the first, 3.26 OD for the second.

molecular target: T1, Full length recombinant HBcAg (rHBcAg) …; test: EIA, support-bound peptide, HBcAg 10 ug/ml

First: CKASGYSFTGYNMNWVKQSH (also called Peptide # 26) [CKASGYSFTGYNMNWVKQSH (SEQ. ID. No. 29)]
Second: VKPGASVKISCKASGYSFTG (also called Peptide # 25) [VKPGASVKISCKASGYSFTG (SEQ. ID. No. 28)]
The OD of the first is lower: 0.601 OD for the first, 0.897 OD for the second.

First: LAVSLGQRATISCRASQSVS [LAVSLGQRATISCRASQSVS (SEQ. ID. No. 16)]
Second: ISCRASQSVSTSSYSYMHWY [ISCRASQSVSTSSYSYMHWY (SEQ. ID. No. 17)]
The OD of the first is lower: 0.872 OD for the first, 1.15 OD for the second.

VKPGASVKLSCKASGYIFTS (also called Peptide # 2; Pept. #2) [VKPGASVKLSCKASGYIFTS (SEQ. ID. No. 5)] was tested, and the OD was 1.69 OD.

molecular target: T1, Full length recombinant HBcAg (rHBcAg) …; test: EIA, support-bound peptide, HBcAg 20 ug/ml

First: CKASGYSFTGYNMNWVKQSH (also called Peptide # 26) [CKASGYSFTGYNMNWVKQSH (SEQ. ID. No. 29)]
Second: VKPGASVKISCKASGYSFTG (also called Peptide # 25) [VKPGASVKISCKASGYSFTG (SEQ. ID. No. 28)]
The OD of the first is lower: 1.48 OD for the first, 2.65 OD for the second.

Compared with LAVSLGQRATISCRASQSVS [LAVSLGQRATISCRASQSVS (SEQ. ID. No. 16)], ISCRASQSVSTSSYSYMHWY [ISCRASQSVSTSSYSYMHWY (SEQ. ID. No. 17)] is higher in OD: 2.63 OD for the first, 2.66 OD for the second.

In the case of VKPGASVKLSCKASGYIFTS (also called Peptide # 2; Pept. #2) [VKPGASVKLSCKASGYIFTS (SEQ. ID. No. 5)], the OD is reported as 3.45 OD.

molecular target: T1, Full length recombinant HBcAg (rHBcAg) …; test: EIA, support-bound peptide, HBcAg 2 ug/well

Compared with CKASGYSFTGYNMNWVKQSH (also called Peptide # 26) [CKASGYSFTGYNMNWVKQSH (SEQ. ID. No. 29)], VKPGASVKISCKASGYSFTG (also called Peptide # 25) [VKPGASVKISCKASGYSFTG (SEQ. ID. No. 28)] is higher in “OD at 405 nm” value: 2.29 OD for the first, 3.13 OD for the second.

Compared with LAVSLGQRATISCRASQSVS [LAVSLGQRATISCRASQSVS (SEQ. ID. No. 16)], ISCRASQSVSTSSYSYMHWY [ISCRASQSVSTSSYSYMHWY (SEQ. ID. No. 17)] is lower in “OD at 405 nm” value: 3.11 OD for the first, 2.48 OD for the second.

With VKPGASVKLSCKASGYIFTS (also called Peptide # 2; Pept. #2) [VKPGASVKLSCKASGYIFTS (SEQ. ID. No. 5)] the “OD at 405 nm” value was 3.69 OD.

molecular target: T2, non-structural 3 protein (NS3) of the hepatitis C virus (HCV) (hepatitis C virus); test: EIA, support-bound peptide, HCV NS3 control
T2 construct: Control antigen; also called HCV NS3

First: CKASGYSFTGYNMNWVKQSH (also called Peptide # 26) [CKASGYSFTGYNMNWVKQSH (SEQ. ID. No. 29)]
Second: VKPGASVKISCKASGYSFTG (also called Peptide # 25) [VKPGASVKISCKASGYSFTG (SEQ. ID. No. 28)]
The “OD at 405 nm” value of the first is lower: 0.053 OD for the first, 0.097 OD for the second.

First: LAVSLGQRATISCRASQSVS [LAVSLGQRATISCRASQSVS (SEQ. ID. No. 16)]
Second: ISCRASQSVSTSSYSYMHWY [ISCRASQSVSTSSYSYMHWY (SEQ. ID. No. 17)]
The “OD at 405 nm” value of the first is lower: 0.128 OD for the first, 0.156 OD for the second.

For VKPGASVKLSCKASGYIFTS (also called Peptide # 2; Pept. #2) [VKPGASVKLSCKASGYIFTS (SEQ. ID. No. 5)], the “OD at 405 nm” value was 0.269 OD.

molecular target: T1, Full length recombinant HBcAg (rHBcAg) …; test: EIA, support-bound peptide, HBcAg 0.67 ug/ml

First: CKASGYSFTGYNMNWVKQSH (also called Peptide # 26) [CKASGYSFTGYNMNWVKQSH (SEQ. ID. No. 29)]
Second: VKPGASVKISCKASGYSFTG (also called Peptide # 25) [VKPGASVKISCKASGYSFTG (SEQ. ID. No. 28)]
The OD of the first is lower: 0.028 OD for the first, 0.036 OD for the second.

Compared with LAVSLGQRATISCRASQSVS [LAVSLGQRATISCRASQSVS (SEQ. ID. No. 16)], ISCRASQSVSTSSYSYMHWY [ISCRASQSVSTSSYSYMHWY (SEQ. ID. No. 17)] is higher in OD: 0.028 OD for the first, 0.039 OD for the second.

VKPGASVKLSCKASGYIFTS (also called Peptide # 2; Pept. #2) [VKPGASVKLSCKASGYIFTS (SEQ. ID. No. 5)] was tested, and the OD was 0.034 OD.

molecular target: T3, truncated recombinant form of HBeAg containing nine residues of pre-core and the 150 first residues of HBcAg (hepatitis B virus, UniProt P03146 1-150); test: EIA, support-bound peptide, HBeAg 1.25 ug/ml
T3 construct: domain: nine residues of pre-core;range 1-150; also called hepatitis B virus e antigen
T3 sequence (P03146 1-150): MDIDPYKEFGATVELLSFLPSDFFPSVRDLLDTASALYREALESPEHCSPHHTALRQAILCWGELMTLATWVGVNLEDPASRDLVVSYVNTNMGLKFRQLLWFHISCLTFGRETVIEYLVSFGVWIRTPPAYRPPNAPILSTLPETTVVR

Compared with CKASGYSFTGYNMNWVKQSH (also called Peptide # 26) [CKASGYSFTGYNMNWVKQSH (SEQ. ID. No. 29)], VKPGASVKISCKASGYSFTG (also called Peptide # 25) [VKPGASVKISCKASGYSFTG (SEQ. ID. No. 28)] is higher in OD: 0.026 OD for the first, 0.034 OD for the second.

Compared with LAVSLGQRATISCRASQSVS [LAVSLGQRATISCRASQSVS (SEQ. ID. No. 16)], ISCRASQSVSTSSYSYMHWY [ISCRASQSVSTSSYSYMHWY (SEQ. ID. No. 17)] is higher in OD: 0.023 OD for the first, 0.056 OD for the second.

With VKPGASVKLSCKASGYIFTS (also called Peptide # 2; Pept. #2) [VKPGASVKLSCKASGYIFTS (SEQ. ID. No. 5)] the OD was 0.043 OD.

molecular target: T1, Full length recombinant HBcAg (rHBcAg) …; test: EIA, support-bound peptide, HBcAg 0.2 ug/well

Going from CKASGYSFTGYNMNWVKQSH (also called Peptide # 26) [CKASGYSFTGYNMNWVKQSH (SEQ. ID. No. 29)] to VKPGASVKISCKASGYSFTG (also called Peptide # 25) [VKPGASVKISCKASGYSFTG (SEQ. ID. No. 28)], the “OD at 405 nm” value rises from 0.356 OD to 0.845 OD.

First: LAVSLGQRATISCRASQSVS [LAVSLGQRATISCRASQSVS (SEQ. ID. No. 16)]
Second: ISCRASQSVSTSSYSYMHWY [ISCRASQSVSTSSYSYMHWY (SEQ. ID. No. 17)]
The “OD at 405 nm” value of the first is higher: 0.807 OD for the first, 0.449 OD for the second.

With VKPGASVKLSCKASGYIFTS (also called Peptide # 2; Pept. #2) [VKPGASVKLSCKASGYIFTS (SEQ. ID. No. 5)] the “OD at 405 nm” value was 1.15 OD.

molecular target: T1, Full length recombinant HBcAg (rHBcAg) …; test: EIA, peptide coated 100 ug/ml, HBcAg 10 ug/ml

First: CKASGYSFTGYNMNWVKQSH (also called Peptide # 26) [CKASGYSFTGYNMNWVKQSH (SEQ. ID. No. 29)]
Second: VKPGASVKISCKASGYSFTG (also called Peptide # 25) [VKPGASVKISCKASGYSFTG (SEQ. ID. No. 28)]
The OD of the first is lower: 0.422 OD for the first, 1.01 OD for the second.

Compared with LAVSLGQRATISCRASQSVS [LAVSLGQRATISCRASQSVS (SEQ. ID. No. 16)], ISCRASQSVSTSSYSYMHWY [ISCRASQSVSTSSYSYMHWY (SEQ. ID. No. 17)] is lower in OD: 0.9 OD for the first, 0.641 OD for the second.

VKPGASVKLSCKASGYIFTS (also called Peptide # 2; Pept. #2) [VKPGASVKLSCKASGYIFTS (SEQ. ID. No. 5)] showed an OD of 1.45 OD.

molecular target: T1, Full length recombinant HBcAg (rHBcAg) …; test: EIA, peptide coated 12.5 ug/ml, HBcAg 10 ug/ml

First: CKASGYSFTGYNMNWVKQSH (also called Peptide # 26) [CKASGYSFTGYNMNWVKQSH (SEQ. ID. No. 29)]
Second: VKPGASVKISCKASGYSFTG (also called Peptide # 25) [VKPGASVKISCKASGYSFTG (SEQ. ID. No. 28)]
The OD of the first is lower: 0.179 OD for the first, 0.423 OD for the second.

Compared with LAVSLGQRATISCRASQSVS [LAVSLGQRATISCRASQSVS (SEQ. ID. No. 16)], ISCRASQSVSTSSYSYMHWY [ISCRASQSVSTSSYSYMHWY (SEQ. ID. No. 17)] is higher in OD: 0.24 OD for the first, 0.514 OD for the second.

For VKPGASVKLSCKASGYIFTS (also called Peptide # 2; Pept. #2) [VKPGASVKLSCKASGYIFTS (SEQ. ID. No. 5)], the OD was 0.913 OD.

molecular target: T1, Full length recombinant HBcAg (rHBcAg) …; test: EIA, peptide coated 6.25 ug/ml, HBcAg 10 ug/ml

Compared with CKASGYSFTGYNMNWVKQSH (also called Peptide # 26) [CKASGYSFTGYNMNWVKQSH (SEQ. ID. No. 29)], VKPGASVKISCKASGYSFTG (also called Peptide # 25) [VKPGASVKISCKASGYSFTG (SEQ. ID. No. 28)] is higher in OD: 0.156 OD for the first, 0.298 OD for the second.

First: LAVSLGQRATISCRASQSVS [LAVSLGQRATISCRASQSVS (SEQ. ID. No. 16)]
Second: ISCRASQSVSTSSYSYMHWY [ISCRASQSVSTSSYSYMHWY (SEQ. ID. No. 17)]
The OD of the first is lower: 0.388 OD for the first, 0.63 OD for the second.

For VKPGASVKLSCKASGYIFTS (also called Peptide # 2; Pept. #2) [VKPGASVKLSCKASGYIFTS (SEQ. ID. No. 5)], the OD was 0.597 OD.

molecular target: T1, Full length recombinant HBcAg (rHBcAg) …; test: competition EIA, peptide added to HBcAg before mAb 4-2 (competitor); OD of bound mAb

VKPGASVKLSCKASGYIFTS (also called Peptide # 2; Pept. #2) [VKPGASVKLSCKASGYIFTS (SEQ. ID. No. 5)] was tested, and the “OD at 490 nm” value was 0.453 OD.

molecular target: T1, Full length recombinant HBcAg (rHBcAg) …; test: competition EIA, HBcAg coated 5 ug/ml, peptide 12.5 ug/ml together with mAb 4-2 (competitor); OD of bound mAb

First: CKASGYSFTGYNMNWVKQSH (also called Peptide # 26) [CKASGYSFTGYNMNWVKQSH (SEQ. ID. No. 29)]
Second: VKPGASVKISCKASGYSFTG (also called Peptide # 25) [VKPGASVKISCKASGYSFTG (SEQ. ID. No. 28)]
The “OD at 490 nm” value of the first is higher: 1.27 OD for the first, 1.21 OD for the second.

Going from LAVSLGQRATISCRASQSVS [LAVSLGQRATISCRASQSVS (SEQ. ID. No. 16)] to ISCRASQSVSTSSYSYMHWY [ISCRASQSVSTSSYSYMHWY (SEQ. ID. No. 17)], the “OD at 490 nm” value rises from 1.04 OD to 1.44 OD.

With VKPGASVKLSCKASGYIFTS (also called Peptide # 2; Pept. #2) [VKPGASVKLSCKASGYIFTS (SEQ. ID. No. 5)] the “OD at 490 nm” value was 0.824 OD.
